{"source": "the RNAGym collection of RNA variant scans (doi:10.7554/elife.90254)", "parents": {"B1": {"name": "LINE1-mini (parent)", "chain": "GGCAGAGCUCAACACAGCGUGGCAAAGUGGCUGUGGCUAGACUGCC"}}}
{"variants_of": "B1", "experiment": "self-cleavage, relative activity (ratio to wild type); higher = more cleavage; in vitro, sequencing; the parent is a self-cleaving ribozyme"}
{"variant": "GCCAGAGCUCAACACAGCGUGGCAAAUUGGCUGUGGCUAGACUGCC", "note": "[G2C G27U]", "self-cleavage": 0.14}
{"variant": "AGCAGAGCUAAACACAGCGUGGCAAAGUGGCUGUGGCUAGACUGCC", "note": "[G1A C10A]", "self-cleavage": 0.12}
{"variant": "GGCAGAGCUCAACACUGCGUGGCAAGGUGGCUGUGGCUAGACUGCC", "note": "[A16U A26G]", "self-cleavage": 0.06}
{"variant": "GACAGAGCUCAACACAGCGUGGCAUAGUGGCUGUGGCUAGACUGCC", "note": "[G2A A25U]", "self-cleavage": 0.65}
{"variant": "GGCAGAGCUAAACACAGCGUGGCAAAGUGGCUGUGGCGAGACUGCC", "note": "[C10A U38G]", "self-cleavage": 0.05}
{"variant": "GGCGGAGCUUAACACAGCGUGGCAAAGUGGCUGUGGCUAGACUGCC", "note": "[A4G C10U]", "self-cleavage": 0.22}
{"variant": "GGCAGAGCUCAAGACAGCGUGGCAAAGUGGCUGUGGCUAGACGGCC", "note": "[C13G U43G]", "self-cleavage": 0.66}
{"variant": "GGCAGAGCUCAACACAGCGUGGCAAAAUGGCUGUGGAUAGACUGCC", "note": "[G27A C37A]", "self-cleavage": 0.05}
{"variant": "GGCAGAGCUCAACACAGCGUGGCAAAGUGUCUGUGGCGAGACUGCC", "note": "[G30U U38G]", "self-cleavage": 0.03}
{"variant": "GGCAGAGCUCAACACAGCGUGGCAAAGCGGCUGUGGCUACACUGCC", "note": "[U28C G40C]", "self-cleavage": 0.2}
{"variant": "GGCAGAGCUCAACACGGCGUGGCAAAGUGGCUGUCGCUAGACUGCC", "note": "[A16G G35C]", "self-cleavage": 0.04}
{"variant": "UGCAGAGCUCAACACAGCGUGGCAAGGUGGCUGUGGCUAGACUGCC", "note": "[G1U A26G]", "self-cleavage": 0.31}
{"variant": "GGCCGAGCUCAACACAGCGUGGCAAAGUGGCUGUGGCUAGACUACC", "note": "[A4C G44A]", "self-cleavage": 0.16}
{"variant": "GGCAGAGCUAAACACAGCGUGGCAAAGUGGCUGUGGCUAGACUACC", "note": "[C10A G44A]", "self-cleavage": 0.07}
{"variant": "GGCAGAGGUCAACACAGCGUGGCAAAGUGGCCGUGGCUAGACUGCC", "note": "[C8G U32C]", "self-cleavage": 0.06}
{"variant": "GGCAGAGCUCAACACAGCGUGGCUAAGUGGUUGUGGCUAGACUGCC", "note": "[A24U C31U]", "self-cleavage": 0.25}
{"variant": "GGCAGAGCUCAACACAGAGUGGCAAAGUGACUGUGGCUAGACUGCC", "note": "[C18A G30A]", "self-cleavage": 1.63}
{"variant": "CACAGAGCUCAACACAGCGUGGCAAAGUGGCUGUGGCUAGACUGCC", "note": "[G1C G2A]", "self-cleavage": 0.13}
{"variant": "GGCAGAGCUCAUCACAGCGUGGCAAAGUGGCUGUGGCUAGACUGUC", "note": "[A12U C45U]", "self-cleavage": 0.27}
{"variant": "GGCAGGGCUCAAAACAGCGUGGCAAAGUGGCUGUGGCUAGACUGCC", "note": "[A6G C13A]", "self-cleavage": 0.19}
{"variant": "GGCAGAGGUCAACACAGCGGGGCAAAGUGGCUGUGGCUAGACUGCC", "note": "[C8G U20G]", "self-cleavage": 0.09}
{"variant": "GGCAGAGCUCAACACAGCGUGGCAAAGUGGCAGUGGCUAGACUCCC", "note": "[U32A G44C]", "self-cleavage": 0.07}
{"variant": "GGCAGAGCUCAACACAACGUGGCAAAGUGGCUGUGGCUAGACUGUC", "note": "[G17A C45U]", "self-cleavage": 0.25}
{"variant": "GGCAGAGCUCAACACAGCGUGGCAAAGUGGCUGUAGCUAGACUGCG", "note": "[G35A C46G]", "self-cleavage": 0.15}
{"variant": "GGCAGAGCUCAACACAGGGUGGCAAAGUGGCUGUGGCUCGACUGCC", "note": "[C18G A39C]", "self-cleavage": 0.06}
{"variant": "GGCAGAGCACAACUCAGCGUGGCAAAGUGGCUGUGGCUAGACUGCC", "note": "[U9A A14U]", "self-cleavage": 0.11}
{"variant": "GGCAGAGCUCAACACAGAGUGGCAAAGUGGCUUUGGCUAGACUGCC", "note": "[C18A G33U]", "self-cleavage": 0.04}
{"variant": "GGCAGAGCUCAACACAGUGUGGCAAAGUGGCUGUGGCUCGACUGCC", "note": "[C18U A39C]", "self-cleavage": 0.16}
{"variant": "GGCAGAGCUCAACACAGCGUGGCCAAGUGGCUGUGGCUUGACUGCC", "note": "[A24C A39U]", "self-cleavage": 0.25}
{"variant": "GGCAGAGCUCAACACAGCGUGGCAAAGUGGCUGUGGCUAGAUUGCA", "note": "[C42U C46A]", "self-cleavage": 0.16}
{"variant": "GGCAGAGCUCAACAGAGCGUGGCAGAGUGGCUGUGGCUAGACUGCC", "note": "[C15G A25G]", "self-cleavage": 0.06}
{"variant": "GGCAGAGCUCAGCACAGCGUGGCAAAGUCGCUGUGGCUAGACUGCC", "note": "[A12G G29C]", "self-cleavage": 0.02}
{"variant": "GGCAGAGCUUAACACAGCGUGGCAAAGUGGCUGUGGCUGGACUGCC", "note": "[C10U A39G]", "self-cleavage": 0.08}
{"variant": "GGCAGAGCUCAACACAGCGUGGCAAAGUGGCUGUGGAUAGACUGCU", "note": "[C37A C46U]", "self-cleavage": 0.04}
{"variant": "GGCAGAGCUCAACACAGAGUGGCAAAGUCGCUGUGGCUAGACUGCC", "note": "[C18A G29C]", "self-cleavage": 0.83}
{"variant": "GGCAGAGCUCAGCACAGCGUCGCAAAGUGGCUGUGGCUAGACUGCC", "note": "[A12G G21C]", "self-cleavage": 0.01}
{"variant": "GGCAGAGCUCAACACGGCGUGGCAAAGUGGCUGUGGCUAAACUGCC", "note": "[A16G G40A]", "self-cleavage": 0.05}
{"variant": "GGCAGAGCUCAACACAGCGUGGCAAAGUGGCUGUGGCUAAAGUGCC", "note": "[G40A C42G]", "self-cleavage": 0.09}
{"variant": "GGCAGAGCUCAACACAGCGUGGCAAAGUGGCUGCGGCUAGACCGCC", "note": "[U34C U43C]", "self-cleavage": 0.04}
{"variant": "GGCAGAGCUCAAAAGAGCGUGGCAAAGUGGCUGUGGCUAGACUGCC", "note": "[C13A C15G]", "self-cleavage": 0.08}
{"variant": "GGCUGAGCUCAACACAGCGUGGCAAAGUGGCUGGGGCUAGACUGCC", "note": "[A4U U34G]", "self-cleavage": 0.06}
{"variant": "GGCAGAGCUCCACACAGCGUAGCAAAGUGGCUGUGGCUAGACUGCC", "note": "[A11C G21A]", "self-cleavage": 0.26}
{"variant": "GGCAGAGCUCAACACAGCGUGGCAAAGUUGCUGUGGCUAGAGUGCC", "note": "[G29U C42G]", "self-cleavage": 0.04}
{"variant": "GGCAGAGCUCAACACAUCGUGGCAAAGUAGCUGUGGCUAGACUGCC", "note": "[G17U G29A]", "self-cleavage": 0.43}
{"variant": "GGCUGAGCUAAACACAGCGUGGCAAAGUGGCUGUGGCUAGACUGCC", "note": "[A4U C10A]", "self-cleavage": 0.04}
{"variant": "GGCAGAGCUCAACACAGCGUGGCAAAGUGGCGUUGGCUAGACUGCC", "note": "[U32G G33U]", "self-cleavage": 0.07}
{"variant": "GCCAGAGCUCAACACAGCGUGGCAACGUGGCUGUGGCUAGACUGCC", "note": "[G2C A26C]", "self-cleavage": 0.11}
{"variant": "GACAGAGCUCAACACAGCGUGGCAAAGUGGCUGUGGCUAAACUGCC", "note": "[G2A G40A]", "self-cleavage": 0.35}
{"variant": "GGCAGAGCUCAACACAGCGUGGCAAAGGGGCUGUGGCUAUACUGCC", "note": "[U28G G40U]", "self-cleavage": 0.09}
{"variant": "GGCAGAGCUCAACACAGCGUGGCAAAGUGGCCGUGGCUUGACUGCC", "note": "[U32C A39U]", "self-cleavage": 0.15}
{"variant": "GGCAGAGGUCAACACAGCGUGGCAAUGUGGCUGUGGCUAGACUGCC", "note": "[C8G A26U]", "self-cleavage": 0.11}
{"variant": "GGCAGAGCUCAACACAGCGUGGCAAAGUGGCCGUGCCUAGACUGCC", "note": "[U32C G36C]", "self-cleavage": 0.04}
{"variant": "GGCAGAGCUGAACACAUCGUGGCAAAGUGGCUGUGGCUAGACUGCC", "note": "[C10G G17U]", "self-cleavage": 0.07}
{"variant": "GGCAGAGCUCAACACAGCGUGGCAAAGUGGCUGUGGCUAGCGUGCC", "note": "[A41C C42G]", "self-cleavage": 0.07}
{"variant": "GGUAGAGCUCAACACAGCGUGGCAAAGUAGCUGUGGCUAGACUGCC", "note": "[C3U G29A]", "self-cleavage": 0.26}
{"variant": "GGCAGAGCUCAACACAGCGUGGCAAAGUUGCUGUGGCUACACUGCC", "note": "[G29U G40C]", "self-cleavage": 0.14}
